Assay: label from the status in PepcDB records
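Also: failed if final PepcDB status was selected cloned or expressed and not failed if soluble or beyond.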

Row | Sequence | protein production
1 | MSFWRPRLGLLDASVLSFAVLPTDLDFNRHMTNARYLSLMDLGRLDLILRSGMWRLVLRQSLQPVIGGALVRFRHALRPFQPFRLTTRVLAWDARWLFIEHRVETLDGKPACTAVVRAAFVASTGMLPTADLLTRLGYGGAAPDVPAWIAPWLQADLACQPASPPLENPL | failed
2 | MSSLFNVNAQFWASLIDSPLKILVHILDIAIVSWLIYKFIKALAGTKVMSLVQGVVLFVLFKFVAEFLGFTTIAFLMNQVITYGVIAGVVIFAPEIRSGLERFGRTPQSFIQRQQLSDDEKLVAAFVKAVAYMSPRKIGALVSIEETQTLREYIATGIPLDADISGELLINIFIPNTPLHDGAVIVEGNKIAVSCAYLPLSESSHISKEFGTRHRAAIGLSEASDAFTFVVSEETGAISVAYKGDFIHDLSLEAFEVLLREHFIKEEPKKKNWMKQFFGGRHHV | failed
3 | MNHPDLAGKVAIVTGAGAGIGLAVARRLADEGCHVLCADIDGDAADAAATKIGCGAAACRVDVSDEQQIIAMVDACVAAFGGVDKLVANAGVVHLASLIDTTVEDFDRVIAINLRGAWLCTKHAAPRMIERGGGAIVNLSSLAGQVAVGGTGAYGMSKAGIIQLSRITAAELRSSGIRSNTLLPAFVDTPMQQTAMAMFDGALGAGGARSMIARLQGRMAAPEEMAGIVVFLLSDDASMITGTTQIADGGTIAALW | not failed
4 | SQEQAQTTDWRATLKTIRNGVHKIDTYLNAALDLLGGEDGLCQYKCSDGSKPFPRYGYKPSPPNGCGSPLFGVHLNIGIPSLTKCCNQHDRCYETCGKSKNDCDEEFQYCLSKICRDVQKTLGLTQHVQACETTVELLFDSVIHLGCKPYLDSQRAACRCHYEEKTDL | not failed
5 | PNFEKMKKEVEEILYNLKKEGGKYHCILAFSGGKDSVLALKLLKEKFKLNPLCVMVDNKYMAKEAIENALNVTKHYQVDLMILNRDYTDLFEDAIKRGESPCRRCSRLILREVWRVTKLLGLKYIITGHELP | not failed
6 | MIWSLLKIYVLMLCTISTVYNTFLLIVCVVGCCVQMEEIVFETKDAVDWSYRSEGVVNLVLAYSGSSPTFLGKVMRIKKLRNTRNENRDRSGSCLTTQEKLIWGEIKDLVSCQNKEIVDYLFVKHVMKPLLGHKYVTPGICLPVEKEFLESVKKIVTSQRHSWRANTLSVDTNRSFALLMDDLTIFSHGQVEDHKPCLTVEIKPKCGFLSSSSFIAEENVIKKSISRFEMYQVLKLRENQISQISEYDPLDLFSGSKDRIHKAIKALYSTPQNSLQVFLNGSLVFGGFRGGICKTTSKLELAFEHTLKDFFKTEDDCGLRANAFIELVAETVYASGALDQLLEVQKLDKYNIEGAIHAYYDLVDQPCKACQELESSKLSNQFGSMHSLPQDEKVNILKDFLISSTAIDCSVMISFRPIETGLSRSSSHGNIQLESTKQEFEYKIHFIDLDMRPLKRMEAYHESDKKITKTYQEMLKKKKGDQPRRF | failed
7 | MAQRIFTLILLLCSTSVFAGLFDAPGRSQFVPADQAFAFDFQQNQHDLNLTWQIKDGYYLYRKQIRITPEHAKIADVQLPQGVWHEDEFYGKSEIYRDRLTLPVTINQASAGATLTVTYQGCADAGFCYPPETKTVPLSEVVANNAAPQPVSVPQQEQPTAQLPFSALWALLIGIGIAFTPCVLPMYPLISGIVLGGKQRLSTARALLLTFIYVQGMALTYTALGLVVAAAGLQFQAALQHPYVLIGLAIVFTLLAMSMFGLFTLQLPSSLQTRLTLMSNRQQGGSPGGVFVMGAIAGLICSPCTTAPLSAILLYIAQSGNMWLGGGTLYLYALGMGLPLMLITVFGNRLLPKSGPWMEQVKTAFGFVILALPVFLLERVIGDVWGLRLWSALGVAFFGWAFITSLQAKRGWMRIVQIILLAAALVSVRPLQDWAFGATHTAQTQTHLNFTQIKTVDELNQALVEAKGKPVMLDLYADWCVACKEFEKYTFSDPQVQKALADTVLLQANVTANDAQDVALLKHLNVLGLPTILFFDGQGQEHPQARVTGFMDAETFSAHLRDRQP | failed
8 | MATEPIRIGVVGASPDRGWAADAHLPALQHLPQYKITAVGTRRADSAHRAARRYGATHAFTDPRSLAAHPDVELVAIVVKVPDHARLVEAALAAGKHVLCEWPLARTTEEAAQLTAAAHGAGVVNAVGLQARHTPTVVRARELIRQGYVGRVTSVTVYSTRGVAAGGRLPAAFAYTLDSTNGAGTLEVAGGHTLDAVQYLLGREMTGLSAALSVQHPRITLDEDARQTGATSPDHVALHATLEGGAALVVHIHDAKNSGAGTRIEISGTQGELAIVSTGPRSGSGLQISELALLGAQGTEPSGQELPFPGSWGTAVPADGLDAAQHTMAVQYAALAADIREGGSRVPRFADGIELHRLLDAVRLSSATGCRLERRAGERWPVSSPWPRRRRSR | failed
9 | MHMQLKGKTALVTGSTAGIGKAIATSLVAEGANVLINGRREENVNETIKEIRAQYPDAILQPVVADLGTEQGCQDVIEKYPKVDILINNLGIFEPVEYFDIPDEDWFKLFEVNIMSGVRLTRSYLKKMIERKEGRVIFIASEAAIMPSQEMAHYSATKTMQLSLSRSLAELTTGTNVTVNTIMPGSTLTEGVETMLNSLYPNEQLTIEEAEKRFMKENRPTSIIQRLIRPEEIAHLVTFLSSPLSSAINGSALRIDGGLVRSVF | not failed
10 | MGLKPSEVIELWPVKIFFIILSVTLFYNFALANGALEKLASHLLYKCRKFPQFLPLAIFFAATIIAGLGAGFYTVLAFMAPITLLLCKKTNMNMIIGGMAANYGALAGANFMTSQSGIIFRSLMENTGISSQTAFSYSSGIFVLTLIIPIAVLGIYTLWNRKSNSIVIEDQKPEPFDKKQKQSIFLIILMMSIVLVFPILHLVFPDVKTISFLNSKIDIAFLAITFSLISLLMKLADEKKVIALVPWRTLIMICGVGMLIALGVKLGIITTLSEWLANNVPVWVIPVLLCLISAIMSVFSSTLGVVAPTLFPIVPALALTSGLNPLVLFICIVVGAQSTAISPFSSGGSLIMASAPADIDKTKFFNQLLFKAIPVGVIAALIAIFALKFVI | failed
11 | MKRYIYLFVSVFTLVMASCQQEETSNGKTGFLQFSVEKNTSTILVPATRAEELPIALQVVDRAGTVVKETDDWHNWTSTPLELPLGSYTINAFSKGVDVGTAGFDEPYYWGQSEVTVVPKVNQSVNIECRLANVKVTVNYSADVKKYFSKLNCSVGNSSGKLVFGKDETRSGYFAVDKLNISLALTNTDGRSFVFESEPITDVKERQHYRINYTMKANGAIGGVSVTLDPSTKEYNVNIAIPKESNPSVNVWSDFADVTLPLPDGVVTKECKYRISGTEDWNTVSNVEQADGKLVATITGLIPGTEYDFCFAINGVNGKITTATTELQKQLENGSFDEWNQNGKTWFPGTAAEASAKNSYWDTGNVGAATMSKNPSIGESNDVHTVGGKSAKLSSQFVGMFGIGKFAAGNIYIGRYMETYTSPMGARIRFGREFTSRPTQLKGWYKYTRGTSIDRGDHNVEELKNSGGDKCAIYIALTDNEGLVDDNGVKTAYEVNNNKEGSPTRYTVDLSEANKDVIAYGSITDEESKGSFDESGNVVWKQFTIDLKYRDLTRKPKYIIVVASASKYGDFFTGSESSVMLIDDFELVYGTPVTAN | failed
12 | MSGDMEATGWGYTHISVDSFCHKWTISNFSFCMDGIMETITSPKFSLKASDKVEWGLKVHPNGIDEESKNYLSVYLALLHCQKSPVWAKYEFWIINSQGEKYQSRKSTKVVSFHKNKYRGFKKFILRDFLFSNPHRLLPEDQLTLCCQVSIMGAFFKTPGQSITPAVPDPRHMMADDLGELWENSLCTDCCLLVAGQEFRAHKAILAARSPVFRAMFEHQMEERLTNRVDINGLDPKVFKEMMGFIYTGKAPHLHIHSMACDLLAAADRYGLEGLKVMCEDALCRNLSVENAAHTLILADLHNIEQLKTQALDFIALHASEVSENSEWKSMMESHPHLVAETFHSLASAQCFLEPSIKHLK | failed
13 | VGKPKMDVDLLQVDADLKKEIFDAYYNTMKTAVMTEEKLAREVEIDKVKDTVKEVYAEKFSEHEEEAQLLKEVKQIAEDLEKDVVRELITIDKIRPDGRKLDEIRH | not failed
14 | MMKEMTVQQMTEKVLNKESLFILDVRNESDFRDWKIEGENFAYLNVPYFELVHGVDSIVDRLPKDQDIVVVCAKGGSAAFVAEQLAEAGFDNVYTLAGGMQAWSEHLHQAKVYEDDQLKIYQFIRVGKGCLSYMVLSGDEALVVDPLRFIDVYEQVAQQEGVTITHIVDSHLHADHLSGGKALAERTGAAYYLMKSEGAVFDFEPLEQHETIDFENVHLEVLAVKTPGHTPGSVSFFVNGKWLFSGDTIFVGGLGRPDLGGKVAEWAEDLYHTVYEKVAAMADDVIVLPAHYANLDEEINAEGYVGDTLGRIRARNEMMQNKAKDEFIDLVIQGAKTETPPNFEDIVAINRGLKTVDIETQRELEIGPLEHHHHHH | not failed
15 | KKPEGKPDQKFDQKQELGRVIHLSNLPHSGYSDSAVLKLAEPYGKIKNYILMRMKSQAFIEMETREDAMAMVDHCLKKALWFQGRCVKVDLSEKYKKLV | not failed
16 | MPFNQNVSLECYNGILSMLLNGAPLADILHALVLKIEDQRLGTHASVLLLSEDGKRVLTGAAPHLPDSYNQVIHGVEIGPEVGSCGTAAYTGQRVIVEDIEHHPYWALYKSFALVHGLRACWSEPIKDTQGKVLGTFAMYYKEIKSPTVADLTLIAEAARLASLAIERSRSLEFQRLEHHHHHH | not failed
17 | NILKIRCAPVTWPIGMGKNFKGVYHILNDEIYLFEAGGERLPHEFDIIKGIDNPELEQRFPLEIQQLRDEIELVQAASNEFNLDEFLAGELTPVFFGSAINNFGIQEILNSLIDWAPAPKPRDATVRMVEPDEPKFSGFIFKIQANMDPKHRDRIAFLRVCSGKFERGMKMKHLRINREIAASSVVTFMSHDRELVEEAYAGDIIGIPNHGNIQIGDSFSEGEQLAFTGIPFFAPELFRSVRIKNPLKIKQLQKGLQQLGEEGAVQVFKPMSGADLILGAVGVLQFEVVTSRLANEYGVEAVFDSASIWSARWVSCDDKKKLAEFEKANAGNLAIDAGGNLAYLAPNRVNLGLTQERWPDIVFHETREHSVKL | failed
18 | MDTAVNESLSISYNLEQFLIVLSVSLSIATLSKTVPILRKIPYTLLLVIVGMALAFVDVKLINLSPELIMEIFLPPLLFEAAWNLQWRNLKENWFPITLFATLGVVICVVGIAFPLSYWGGMELAIAFLAAAALSATDPVSVIALFKELGASKKLNTLMEGESLFNDGVAVVVFLILVGIPLGTSTFDLSVTLARFVTVIGIGVGCGLVIGFSLSLLTQRFDLPFVEQSLTLVSAYGAYILAENLGGSGVIGVVVVGMVLGNYGSRIGMNPRTRLIVSIFWEFVAFFVNSIIFLLIGDQIGLSSLSDHLNLILIAIAAVVVTRLVSVFGLSLISNKVSDQISSTHITLQEQTVLWWGGLRGSVAIAVALSVPQAIAERQAIIDIVFGVVLFTLLVQGLTTQFVLKGLDLIGDQPQRLEYAELVSRQIALRRVLAELEKTDEFPDINPERLRYKQELVQGQLQSVTDKLKLLLQEYPLLQEVANKKFDQTVLDIEAETYADLIRMGRLEENIMPLLVTLEGENVAEPS | failed
19 | DIQVITQTGVPGQPLNFKAEPESETSILLSWTPPRSDTIANYELVYKDGEHGEEQRITIEPGTSYRLQGLKPNSLYYFRLAARSPQGLGASTAEISARTMQS | not failed
20 | MMARVEKLRELMKENNLQGFLVTSPYNLRYLTNFTGTTGLAMITLDKAFFVTDFRYTEQAAEQATGFTIVKNTGHIFDEVADLAERLQLDNLAFEETQVSFADYSLLEEILPCELVPVMGLIEELR | not failed
21 | MSVQTIERLQDYLLPEWVSIFDIADFSGRMLRIRGDIRPALLRLASRLAELLNESPGPRPWYPHVASHMRRRVNPPPETWLALGPEKRGYKSYAHSGVFIGGRGLSVRFILKDEAIEERKNLGRWMSRSGPAFEQWKKKVGDLRDFGPVHDDPMADPPKVEWDPRVFGERLGSLKSASLDIGFRVTFDTSLAGIVKTIRTFDLLYAEAEKGS | not failed
